Results from patent publication US20140087995A1 (published 2014).
Read-outs that look alike come from different tables or passages of the source. One block for each binder: values may come before it. Numbered stars: 1 amine (or outer) side, 2 acyl side, 3 side chain; on linkers, the order of the positions; unused ones are H or OH. Bridge positions count the residues as written; N and C are the ends. Side chains are listed from the residue outwards. Ends that are not written are not given here. * marks the point of attachment. C20 diacid = O=C(O)CCCCCCCCCCCCCCCCCCC(=O)*; γGlu = O=C(O)[C@H](CCC(=O)[*:2])N[*:1]

Experiments:
[1] = biological target: T1, human calcitonin receptor (human, UniProt P30988 25-474); test: cell-based or functional assay
T1 sequence (looked up): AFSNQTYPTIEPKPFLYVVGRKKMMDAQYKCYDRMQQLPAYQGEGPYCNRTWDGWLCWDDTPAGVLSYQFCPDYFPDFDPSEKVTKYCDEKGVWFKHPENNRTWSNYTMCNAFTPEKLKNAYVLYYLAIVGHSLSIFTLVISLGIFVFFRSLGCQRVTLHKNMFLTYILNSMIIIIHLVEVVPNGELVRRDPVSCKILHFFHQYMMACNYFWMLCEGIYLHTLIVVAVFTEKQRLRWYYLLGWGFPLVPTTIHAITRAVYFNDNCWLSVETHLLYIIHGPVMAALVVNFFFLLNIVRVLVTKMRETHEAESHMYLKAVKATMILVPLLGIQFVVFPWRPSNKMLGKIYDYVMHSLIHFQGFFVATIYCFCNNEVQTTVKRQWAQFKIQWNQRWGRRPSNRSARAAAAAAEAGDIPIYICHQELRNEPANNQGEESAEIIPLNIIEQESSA

[2] = biological target: T2, human amylin receptor (amylin 3(a) receptor: human calcitonin receptor with RAMP-3) (human, UniProt P30988 25-474; O60896 24-148, limits assumed); test: cell-based or functional assay
T2 sequence (looked up) 1: T1 sequence (looked up)
T2 sequence (looked up) 2: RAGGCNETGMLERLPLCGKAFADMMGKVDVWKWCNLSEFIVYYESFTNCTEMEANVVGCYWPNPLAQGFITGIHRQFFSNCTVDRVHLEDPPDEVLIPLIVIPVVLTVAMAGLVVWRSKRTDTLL

[3] = biological target: T3, human amylin receptor (amylin 3(a) receptor: human calcitonin receptor coexpressed with RAMP-3) (human, UniProt P30988 25-474; O60896 24-148); test: cell-based or functional assay
T3 sequence (looked up) 1: T1 sequence (looked up)
T3 sequence (looked up) 2: T2 sequence (looked up) 2

[4] = biological target: T4, human calcitonin receptor (human, UniProt P30988 25-474); test: cell-based or functional assay; remark: listed apart in the source
T4 sequence (looked up): T1 sequence (looked up)

[5] = biological target: T3, human amylin receptor (amylin 3(a) …); test: SPA competition against 125I-rat amylin, membranes of BHK amylin 3(a)/CRE-luc cells (Assay V)
Experimental: The binding assay was performed using scintillation proximity assay (SPA) beads (RPNQ0001) from PerkinElmer and cell membranes from the Amylin 3(a)/CRE-luc cells (as described in Assay (II)) were used. Membranes were prepared in the following way; the cells were rinsed with PBS and incubated with Versene for approximately 5 min before harvesting. The cells were flushed with PBS and the cell-suspension was centrifuged for 5 min at 1000 rpm. Cells were homogenized (ultrathurrax) in a buffer containing 20 mM Na-HEPES and 10 mM EDTA (pH 7.4) and centrifuged at 20.000 rpm for 15 min. The resulting pellet was resuspended, homogenized and centrifuged (20.000 rpm, 15 min) in a buffer containing 20 mM Na-HEPES and 0.1 mM EDTA (pH 7.4, buffer 2). The resulting pellet was resuspended in buffer 2 and protein concentration was measured (BCA protein Assay, Pierce). The homogenate was kept cold during the whole procedure. The membranes were kept at −80° C. until use. The assay was performed in a 384 well Optiplate (PerkinElmer) in a total volume of 40 ul. Membranes were mixed with SPA beads. Final concentration of membranes 35 ng/μL final and SPA beads was 0.05 mg/well. Test-compounds were dissolved in DMSO and further diluted in assay buffer (50 mM Hepes, pH 7.4, 1 mM CaCl2, 5 mM MgCl₂, 0.1% OA and 0.02% Tween20). […] The final mixture was incubated with shaking at 400 rpm for 120 min at 25° C. prior to centrifugation (1500 rpm, 10 min). Samples were analyzed on TopCounter™ (Packard). The IC₅₀ was calculated using (one site binding competition analysis) GraphPad Prism5 as a measure of receptor affinity.

Ratio hCT/hAmylin funct. [1]: 9.9 ratio
hCTR funct. EC50 (pM) [1]: 2140 pM
hAmylin-R funct. EC50 (pM) [2]: 216 pM
B2: N^ε1-[(4S)-4-carboxy-4-[[(4S)-4-carboxy-4-(19-carboxynonadecanoylamino)butanoyl]amino]butanoyl]-[Glu14,Arg17,Pro21,Pro27,Pro34,Phe37]-h-amylin (peptide)
peptide: K([γGlu-γGlu-C20 diacid])CNTATCATQRLAEFLRHSSPNFGAIPSSTNVGPNTF-NH2
modifications: disulfide 2-7; N-terminus assumed
SMILES: CC[C@H](C)[C@H](NC(=O)[C@H](C)NC(=O)CNC(=O)[C@H](Cc1ccccc1)NC(=O)[C@H](CC(N)=O)NC(=O)[C@@H]1CCCN1C(=O)[C@H](CO)NC(=O)[C@H](CO)NC(=O)[C@H](Cc1c[nH]cn1)NC(=O)[C@H](CCCNC(=N)N)NC(=O)[C@H](CC(C)C)NC(=O)[C@H](Cc1ccccc1)NC(=O)[C@H](CCC(=O)O)NC(=O)[C@H](C)NC(=O)[C@H](CC(C)C)NC(=O)[C@H](CCCNC(=N)N)NC(=O)[C@H](CCC(N)=O)NC(=O)[C@@H](NC(=O)[C@H](C)NC(=O)[C@@H]1CSSC[C@H](NC(=O)[C@@H](N)CCCCNC(=O)CC[C@H](NC(=O)CC[C@H](NC(=O)CCCCCCCCCCCCCCCCCCC(=O)O)C(=O)O)C(=O)O)C(=O)N[C@@H](CC(N)=O)C(=O)N[C@@H]([C@@H](C)O)C(=O)N[C@@H](C)C(=O)N[C@@H]([C@@H](C)O)C(=O)N1)[C@@H](C)O)C(=O)N1CCC[C@H]1C(=O)N[C@@H](CO)C(=O)N[C@@H](CO)C(=O)N[C@H](C(=O)N[C@@H](CC(N)=O)C(=O)N[C@H](C(=O)NCC(=O)N1CCC[C@H]1C(=O)N[C@@H](CC(N)=O)C(=O)N[C@H](C(=O)N[C@@H](Cc1ccccc1)C(N)=O)[C@@H](C)O)C(C)C)[C@@H](C)O

hAmylin-R funct. EC50 (pM) [3]: 5170 pM
Ratio hCT/hAmylin funct. [4]: 17.3
hCTR funct. EC50 (pM) [4]: 89600 pM
IC50 [5]: 1190 pM
Binder: K([γGlu-γGlu-C20 diacid])CNTATCATQRLAEFLRHSSNNPGAILSSTNVGPETY-NH2 (disulfide 2-7)

hAmylin-R funct. EC50 (pM) [3]: 225 pM
Ratio hCT/hAmylin funct. [4]: 10.5
hCTR funct. EC50 (pM) [4]: 2360 pM
IC50 [5]: 121 pM
B4: N^ε1-[(4S)-4-carboxy-4-[[(4S)-4-carboxy-4-(19-carboxynonadecanoylamino)butanoyl]amino]butanoyl]-[Glu14,Arg17,Pro21,Pro27,Pro34,Glu35]-h-amylin (peptide)
peptide: K([γGlu-γGlu-C20 diacid])CNTATCATQRLAEFLRHSSPNFGAIPSSTNVGPETY-NH2
modifications: disulfide 2-7; N-terminus assumed
SMILES: CC[C@H](C)[C@H](NC(=O)[C@H](C)NC(=O)CNC(=O)[C@H](Cc1ccccc1)NC(=O)[C@H](CC(N)=O)NC(=O)[C@@H]1CCCN1C(=O)[C@H](CO)NC(=O)[C@H](CO)NC(=O)[C@H](Cc1c[nH]cn1)NC(=O)[C@H](CCCNC(=N)N)NC(=O)[C@H](CC(C)C)NC(=O)[C@H](Cc1ccccc1)NC(=O)[C@H](CCC(=O)O)NC(=O)[C@H](C)NC(=O)[C@H](CC(C)C)NC(=O)[C@H](CCCNC(=N)N)NC(=O)[C@H](CCC(N)=O)NC(=O)[C@@H](NC(=O)[C@H](C)NC(=O)[C@@H]1CSSC[C@H](NC(=O)[C@@H](N)CCCCNC(=O)CC[C@H](NC(=O)CC[C@H](NC(=O)CCCCCCCCCCCCCCCCCCC(=O)O)C(=O)O)C(=O)O)C(=O)N[C@@H](CC(N)=O)C(=O)N[C@@H]([C@@H](C)O)C(=O)N[C@@H](C)C(=O)N[C@@H]([C@@H](C)O)C(=O)N1)[C@@H](C)O)C(=O)N1CCC[C@H]1C(=O)N[C@@H](CO)C(=O)N[C@@H](CO)C(=O)N[C@H](C(=O)N[C@@H](CC(N)=O)C(=O)N[C@H](C(=O)NCC(=O)N1CCC[C@H]1C(=O)N[C@@H](CCC(=O)O)C(=O)N[C@H](C(=O)N[C@@H](Cc1ccc(O)cc1)C(N)=O)[C@@H](C)O)C(C)C)[C@@H](C)O

The remaining lines, values behind:

B1: N^ε1-[(4S)-4-carboxy-4-[[(4S)-4-carboxy-4-(19-carboxynonadecanoylamino)butanoyl]amino]butanoyl]-[Glu14,Arg17,Pro21,Pro27,His34]-h-amylin (peptide)
peptide: K([γGlu-γGlu-C20 diacid])CNTATCATQRLAEFLRHSSPNFGAIPSSTNVGHNTY-NH2
modifications: disulfide 2-7; N-terminus assumed
SMILES: CC[C@H](C)[C@H](NC(=O)[C@H](C)NC(=O)CNC(=O)[C@H](Cc1ccccc1)NC(=O)[C@H](CC(N)=O)NC(=O)[C@@H]1CCCN1C(=O)[C@H](CO)NC(=O)[C@H](CO)NC(=O)[C@H](Cc1c[nH]cn1)NC(=O)[C@H](CCCNC(=N)N)NC(=O)[C@H](CC(C)C)NC(=O)[C@H](Cc1ccccc1)NC(=O)[C@H](CCC(=O)O)NC(=O)[C@H](C)NC(=O)[C@H](CC(C)C)NC(=O)[C@H](CCCNC(=N)N)NC(=O)[C@H](CCC(N)=O)NC(=O)[C@@H](NC(=O)[C@H](C)NC(=O)[C@@H]1CSSC[C@H](NC(=O)[C@@H](N)CCCCNC(=O)CC[C@H](NC(=O)CC[C@H](NC(=O)CCCCCCCCCCCCCCCCCCC(=O)O)C(=O)O)C(=O)O)C(=O)N[C@@H](CC(N)=O)C(=O)N[C@@H]([C@@H](C)O)C(=O)N[C@@H](C)C(=O)N[C@@H]([C@@H](C)O)C(=O)N1)[C@@H](C)O)C(=O)N1CCC[C@H]1C(=O)N[C@@H](CO)C(=O)N[C@@H](CO)C(=O)N[C@H](C(=O)N[C@@H](CC(N)=O)C(=O)N[C@H](C(=O)NCC(=O)N[C@@H](Cc1c[nH]cn1)C(=O)N[C@@H](CC(N)=O)C(=O)N[C@H](C(=O)N[C@@H](Cc1ccc(O)cc1)C(N)=O)[C@@H](C)O)C(C)C)[C@@H](C)O
notes: also called compound 87
Ratio hCT/hAmylin funct. [1]: 3.8 ratio
hAmylin-R funct. EC50 (pM) [2]: 285 pM

B3: N^ε1-[(4S)-4-carboxy-4-[[(4S)-4-carboxy-4-(19-carboxynonadecanoylamino)butanoyl]amino]butanoyl]-[Glu14,Arg17,Pro21,Pro27,Arg34,Glu35]-h-amylin (peptide)
peptide: K([γGlu-γGlu-C20 diacid])CNTATCATQRLAEFLRHSSPNFGAIPSSTNVGRETY-NH2
modifications: disulfide 2-7; N-terminus assumed
SMILES: CC[C@H](C)[C@H](NC(=O)[C@H](C)NC(=O)CNC(=O)[C@H](Cc1ccccc1)NC(=O)[C@H](CC(N)=O)NC(=O)[C@@H]1CCCN1C(=O)[C@H](CO)NC(=O)[C@H](CO)NC(=O)[C@H](Cc1c[nH]cn1)NC(=O)[C@H](CCCNC(=N)N)NC(=O)[C@H](CC(C)C)NC(=O)[C@H](Cc1ccccc1)NC(=O)[C@H](CCC(=O)O)NC(=O)[C@H](C)NC(=O)[C@H](CC(C)C)NC(=O)[C@H](CCCNC(=N)N)NC(=O)[C@H](CCC(N)=O)NC(=O)[C@@H](NC(=O)[C@H](C)NC(=O)[C@@H]1CSSC[C@H](NC(=O)[C@@H](N)CCCCNC(=O)CC[C@H](NC(=O)CC[C@H](NC(=O)CCCCCCCCCCCCCCCCCCC(=O)O)C(=O)O)C(=O)O)C(=O)N[C@@H](CC(N)=O)C(=O)N[C@@H]([C@@H](C)O)C(=O)N[C@@H](C)C(=O)N[C@@H]([C@@H](C)O)C(=O)N1)[C@@H](C)O)C(=O)N1CCC[C@H]1C(=O)N[C@@H](CO)C(=O)N[C@@H](CO)C(=O)N[C@H](C(=O)N[C@@H](CC(N)=O)C(=O)N[C@H](C(=O)NCC(=O)N[C@@H](CCCNC(=N)N)C(=O)N[C@@H](CCC(=O)O)C(=O)N[C@H](C(=O)N[C@@H](Cc1ccc(O)cc1)C(N)=O)[C@@H](C)O)C(C)C)[C@@H](C)O
hAmylin-R funct. EC50 (pM) [3]: 703 pM
Ratio hCT/hAmylin funct. [4]: 10.6
hCTR funct. EC50 (pM) [4]: 7430 pM
IC50 [5]: 957 pM
